# Test results taken from patent US20040087767.
# B1: Factor VIIa (protein)
# chain: ANAFLEELRPGSLERECKEEQCSFEEAREIFKDAERTKLFWISYSDGDQCASSPCQNGGSCKDQLQSYICFCLPAFEGRNCETHKDDQLICVNENGGCEQYCSDHTGTKRSCRCHEGYSLLADGVSCTPTVEYPCGKIPILEKRNASKPQGRIVGGKVCPKGECPWQVLLLVNGAQLCGGTLINTIWVVSAAHCFDKIKNWRNLIAVLGEHDLSEHDGDEQSRRVAQVIIPSTYVPGTTNHDIALLRLHQPVVLTDHVVPLCLPERTFSERTLAFVRFSLVSGWGQLLDRGATALELMVLNVPRLMTQDCLQQSRKVGDSPNITEYMFCAGYSDGSKDSCKGDSGGPHATHYRGTWYLTGIVSWGQGCATVGHFGVYTRVSQYIEWLQKLMRSEPRPGVLLRAPFP
# Molecular target: A-183-CS-Z-fusion peptide, P38507
protein,measurement,value
B1,"cleavage of the fusion peptide by FVIIa (HPLC, SDS-PAGE, N-terminal sequencing, mass spectrometry)","the fusion peptide was cleaved after the putative P1 arginine only under enzymatically favorable conditions (sTF, pH 8.5); no cleavage was observed at pH 6.0 and the absence of sTF"
